The target of experiment [1] is bovine serum albumin (BSA) (bovine, UniProt P02769 25-607). The experiment can be described thus: binding ELISA. On the technique in general: In an ELISA, binding on a coated surface is turned into a signal by an enzyme label.
For experiment [2], the target named is T1, recombinant secretory human HB-EGF manufactured by R & D System (catalogue number 259-HE/CF) (human, UniProt Q99075 63-148).
T1 construct: also called recombinant human HB-EGF; secretory HB-EGF
The experiment can be described thus: SPR (Biacore T-100), HB-EGF immobilized on CM5 chip, antibody in flow. The protocol: (§1) In order to analyze binding activities of a mouse antibody KM3566 and the chimeric antibody KM3966 for human HB-EGF in reaction kinetics, the binding activity measurement was carried out using Biacore. All of the following operations were carried out using Biacore T-100 (manufactured by Biacore). Human HB-EGF (manufactured by R & D) prepared into 5 μg/ml using HBS-EP Buffer (manufactured by Biacore) was immobilized onto a CM 5 sensor chip (manufactured by Biacore) to a level of 80 RU (resonance unit) by an amine coupling method. Thereafter, each antibody diluted 5-fold from 9 nmol/l was let flow on the chip at a rate of 10 μl/min, and by analyzing the sensor-gram at each concentration, the association rate constant and dissociation rate constant of each antibody for human HB-EGF were calculated.
It was confirmed based on the results that both antibodies almost the same binding activity for human HB-EGF.
For orientation: SPR reads the build-up and loss of mass on a sensor chip optically.

In the next experiment the target is T2, mouse HB-EGF (mouse, UniProt Q06186 63-148, limits assumed).
T2 sequence (looked up): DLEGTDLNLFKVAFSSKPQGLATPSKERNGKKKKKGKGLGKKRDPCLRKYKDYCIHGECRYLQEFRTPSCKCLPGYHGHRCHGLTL
The experiment can be described thus: not described.

Experiment [3] concerns the target T1, recombinant secretory human HB-EGF …. In words: SPR (BIACORE T100), HB-EGF immobilized, antibody in flow. The protocol: as §1
In order to reaction-kinetically analyze binding activity of the anti-HB-EGF humanized antibodies for human HB-EGF, it was measured in the same manner as in Example 7(2) using BIACORE T100 (manufactured by BIACORE).
As a result, human HB-EGF binding activity of the anti-HB-EGF humanized antibody HV0LV0 in which the CDRs of anti-HB-EGF chimeric antibody KM3966 were simply transplanted into human framework was reduced close to about ½ of that of the anti-HB-EGF chimeric antibody KM3966, but the binding activity of the anti-HB-EGF humanized antibody HV7LV0 in which amino acid modification was added to the H chain alone and the anti-HB-EGF humanized antibody HV7LV5 in which amino acid modification was added to the H chain and L chain was increased to almost the same level of the anti-HB-EGF chimeric antibody KM3966.

The target is the same in experiment [4]. In words: SPR (BIACORE T100), HB-EGF immobilized. The protocol: as §1
In order to reaction-kinetically analyze binding activity of the anti-HB-EGF humanized antibodies for human HB-EGF, it was measured in the same manner as in Example 7(2) using BIACORE T100 (manufactured by BIACORE). […]

T1 sequence (Q99075 63-148 limits assumed): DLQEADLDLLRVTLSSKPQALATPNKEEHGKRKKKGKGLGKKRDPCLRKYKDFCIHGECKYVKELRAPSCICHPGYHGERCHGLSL
Chain of bovine serum albumin (BSA) (P02769 25-607 limits assumed): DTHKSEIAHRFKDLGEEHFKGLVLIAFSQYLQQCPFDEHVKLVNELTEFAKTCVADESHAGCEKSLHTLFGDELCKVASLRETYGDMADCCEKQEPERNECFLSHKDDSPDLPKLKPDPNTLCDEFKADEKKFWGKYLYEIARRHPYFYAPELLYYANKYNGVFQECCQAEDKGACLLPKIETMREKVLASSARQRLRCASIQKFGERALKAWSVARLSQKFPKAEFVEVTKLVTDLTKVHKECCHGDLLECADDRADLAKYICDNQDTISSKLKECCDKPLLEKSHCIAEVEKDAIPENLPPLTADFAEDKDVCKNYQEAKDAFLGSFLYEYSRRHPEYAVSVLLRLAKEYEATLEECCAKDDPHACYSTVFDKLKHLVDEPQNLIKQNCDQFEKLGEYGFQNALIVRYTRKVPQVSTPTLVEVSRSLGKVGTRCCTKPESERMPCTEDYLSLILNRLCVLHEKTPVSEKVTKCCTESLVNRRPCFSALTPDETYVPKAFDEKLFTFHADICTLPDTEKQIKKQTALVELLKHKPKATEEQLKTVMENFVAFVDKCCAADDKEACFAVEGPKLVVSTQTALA

B1: anti-HB-EGF monoclonal antibody KM3566 (antibody, V domains shown)
VH: QVQLQQSGTELARPGASVKLSCKASGYTFRTYGITWVKQRTGQGLEWIGEIFPGSGNTYYNEKFKGKASLTADKSSSTAYMQLSSLTSEDSAVYFCARESFSDGYYGYFDYWGQGTTLTVSS
VL: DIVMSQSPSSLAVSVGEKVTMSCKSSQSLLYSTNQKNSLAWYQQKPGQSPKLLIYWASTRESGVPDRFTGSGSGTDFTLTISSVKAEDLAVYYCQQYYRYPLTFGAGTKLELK
notes: also called anti-HB-EGF mouse antibody KM3566; monoclonal antibody produced by hybridoma KM3566 (FERM BP-10490)
On to B1, for which the values for the binding result (in experiment [1]; with mouse HB-EGF) were “no binding (tested: diluted stepwise from 10 µg/ml)” and “no binding”, respectively. Moreover, in experiment [2], the kon (in general, a measure of how fast the partners come together) was determined as 270000 M⁻¹ s⁻¹.

B2: anti-HB-EGF chimeric antibody KM3966 (antibody, V domains shown)
VH: QVQLQQSGTELARPGASVKLSCKASGYTFRTYGITWVKQRTGQGLEWIGEIFPGSGNTYYNEKFKGKASLTADKSSSTAYMQLSSLTSEDSAVYFCARESFSDGYYGYFDYWGQGTTLTVSS
VL: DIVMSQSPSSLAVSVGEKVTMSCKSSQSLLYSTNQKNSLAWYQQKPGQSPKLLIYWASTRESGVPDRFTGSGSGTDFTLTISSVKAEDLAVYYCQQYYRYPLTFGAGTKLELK
notes: Human chimeric IgG class antibody made with the vector pKANTEX93 (WO 97/10354); also called human chimeric antibody KM3966; anti-HB-EGF monoclonal antibody KM3966
As for B2, the kon in experiment [3] worked out at 187000 M⁻¹ s⁻¹; in experiment [2], 240000 M⁻¹ s⁻¹. In the experiment with mouse HB-EGF, the binding result was “no binding”.

B3: anti-HB-EGF humanized antibody HV7LV0 (antibody, V domains shown)
VH: QVQLVQSGAEVKKPGASVKLSCKASGYTFRTYGITWVRQAPGQGLEWIGEIFPGSGNTYYNEKFKGRATLTADKSTSTAYMELSSLRSEDTAVYFCARESFSDGYYGYFDYWGQGTLLTVSS
VL: DIVMTQSPDSLAVSLGERATINCKSSQSLLYSTNQKNSLAWYQQKPGQPPKLLIYWASTRESGVPDRFSGSGSGTDFTLTISSLQAEDVAVYYCQQYYRYPLTFGQGTKLEIK
notes: Whole humanized antibody from pKANTEX93
Consider B3, for which the kon in experiment [3] came out at 174000 M⁻¹ s⁻¹.

B4: anti-HB-EGF humanized antibody HV0LV0 (antibody, V domains shown)
VH: QVQLVQSGAEVKKPGASVKVSCKASGYTFTTYGITWVRQAPGQGLEWMGEIFPGSGNTYYNEKFKGRVTITADKSTSTAYMELSSLRSEDTAVYYCARESFSDGYYGYFDYWGQGTLVTVSS
VL: DIVMTQSPDSLAVSLGERATINCKSSQSLLYSTNQKNSLAWYQQKPGQPPKLLIYWASTRESGVPDRFSGSGSGTDFTLTISSLQAEDVAVYYCQQYYRYPLTFGQGTKLEIK
notes: Whole humanized antibody expressed from pKANTEX93
For B4, in experiment [3], the on-rate constant (kon) came to 104000 M⁻¹ s⁻¹. For the same molecule, the “human HB-EGF binding activity relative to KM3966” value in experiment [4] is ~0.5 fold of KM3966.

B5: anti-HB-EGF humanized antibody HV7LV5 (antibody, V domains shown)
VH: QVQLVQSGAEVKKPGASVKLSCKASGYTFRTYGITWVRQAPGQGLEWIGEIFPGSGNTYYNEKFKGRATLTADKSTSTAYMELSSLRSEDTAVYFCARESFSDGYYGYFDYWGQGTLLTVSS
VL: DIVMTQSPDSLAVSVGERVTMNCKSSQSLLYSTNQKNSLAWYQQKPGQSPKLLIYWASTRESGVPDRFSGSGSGTDFTLTISSVQAEDVAVYYCQQYYRYPLTFGQGTKLEIK
notes: as for B3
On to B5, for which the kon in experiment [3] was found to be 170000 M⁻¹ s⁻¹.

For the origin of these results see patent publication US20110034673A1 (Kyowa Kirin, published 2011).
